Experiment [1] deals with T1, Cy5-labeled karyopherin β1 (KPNB1) (UniProt Q14974 1-876, Cy5 label (site not stated)).
T1 construct: Karyopherin β1 (KPNB1, importin β1); also called importin β1; Cy5-KPNB1
The experiment is described as follows: single-molecule pull-down (TIRF microscopy); GST-NUPR1 immobilised; observed rate constants at various concentrations of karyopherin β1, fitted with a Michaelis-Menten equation. The conditions noted are these: both partners purified.

Experiment [2] has as its target T1, Cy5-labeled karyopherin β1 (KPNB1). In words: single-molecule pull-down (TIRF microscopy); GST-NUPR1 (100 nM) immobilised on PEG-coated quartz via neutravidin and biotin-conjugated GST-tag antibody; 5 nM Cy5-labeled KPNB1 in imaging buffer (4 mM Trolox, 0.2% glucose, 50 mM NaCl, pyranose oxidase, catalase); spots counted up to 1 h, then unbound KPNB1 washed out for dissociation; exponential fits. The conditions noted are these: both partners purified.

T1 sequence (Q14974 whole entry): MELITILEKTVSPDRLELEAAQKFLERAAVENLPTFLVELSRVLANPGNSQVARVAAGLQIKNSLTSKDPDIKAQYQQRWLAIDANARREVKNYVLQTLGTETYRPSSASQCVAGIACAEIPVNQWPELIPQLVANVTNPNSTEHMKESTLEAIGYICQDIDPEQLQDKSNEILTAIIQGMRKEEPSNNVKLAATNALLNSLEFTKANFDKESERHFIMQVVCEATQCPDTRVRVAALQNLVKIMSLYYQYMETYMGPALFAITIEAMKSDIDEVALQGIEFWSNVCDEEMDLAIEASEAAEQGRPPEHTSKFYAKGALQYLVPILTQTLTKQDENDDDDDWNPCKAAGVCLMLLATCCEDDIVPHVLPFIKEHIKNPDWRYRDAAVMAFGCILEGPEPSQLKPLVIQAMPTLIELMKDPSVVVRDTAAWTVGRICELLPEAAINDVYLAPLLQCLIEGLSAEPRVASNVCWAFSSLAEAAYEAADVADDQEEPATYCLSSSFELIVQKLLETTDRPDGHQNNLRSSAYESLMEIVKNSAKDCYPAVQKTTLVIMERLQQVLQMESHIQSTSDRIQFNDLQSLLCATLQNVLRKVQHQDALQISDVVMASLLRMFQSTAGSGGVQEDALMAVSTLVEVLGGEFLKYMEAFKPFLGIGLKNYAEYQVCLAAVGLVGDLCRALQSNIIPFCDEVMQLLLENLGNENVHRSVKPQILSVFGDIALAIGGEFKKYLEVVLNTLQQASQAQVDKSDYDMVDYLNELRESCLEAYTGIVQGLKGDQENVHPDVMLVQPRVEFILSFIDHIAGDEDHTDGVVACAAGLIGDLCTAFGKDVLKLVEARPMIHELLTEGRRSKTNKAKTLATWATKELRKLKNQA

B1: GST-NUPR1 (nuclear protein-1) recombinant protein (natural protein, UniProt O60356 1-82, looked up)
chain: MATFPPATSAPQQPPGPEDEDSSLDESDLYSLAHSYLGGGGRKGRTKREAAANTNRPSPGGHERKLVTKLQNSERKKRGARR
notes: Nuclear protein-1 (NUPR1, p8/Com-1); Held on the PEG-coated quartz surface through neutravidin and a biotin-conjugated GST-tag antibody; No catalogue number is printed; also called p8; Com-1; source: bought: NOVUS Biologicals (recombinant protein)
In turn, B1 had a dissociation constant (Kd) in experiment [1] of 0.75 nM. Besides, in experiment [2], the Kd was ~0.65 nM, the koff amounted to 0.0003 s⁻¹ and the kon worked out at 467000 M⁻¹ s⁻¹.

The values are drawn from article PMC8000408, “Inhibition of NUPR1–Karyopherin β1 Binding Increases Anticancer Drug Sensitivity” (International Journal of Molecular Sciences, 2021).
